The source of these data is US10765761B2, “Nucleic acid condensing peptide, nucleic acid condensing peptide set, nucleic acid delivery carrier, nucleic acid delivery method, cell production method, cell detection method and kit” (KABUSHIKI KAISHA TOSHIBA, priority 2016, dated 2020).

The subject of data set [1] is plasmid vector (pDNA). Put plainly: Gel retardation assay: condensability and dissociation with M9, Example 11. Type of data set: binding. On the procedure: Each of the peptides was dissolved in 10 mM-HEPES (pH: 5.4) and several peptide solutions having different peptide concentrations were prepared.
For M9, one peptide solution was prepared to have a peptide concentration of: (1) 0.24 mg/ml. For mHP-1 and mHP-2, peptide solutions were prepared to have a peptide concentration of 0.24 mg/ml and a mixture ratio between mHP-1 and mHP-2 of 1:3, and 1 μL of M9 was added to one to prepare a peptide solution (2), and M9 was not added to one to prepare a peptide solution (3). Moreover, the plasmid vector (pDNA) was diluted with purified water to prepare a nucleic acid solution having a pDNA concentration of 0.15 mg/ml. […]
As samples for the condensability evaluation, five sets of 5.5 μL of 10 mM-HEPES (pH: 5.4) were prepared, and 4.5 μL of the respective peptide-nucleic-acid solutions described above were added to prepare mixtures. […] After the electrophoresis, the nucleic acid dyed with ethidium bromide was visualized by UV irradiation, and the nucleic acids condensed by the peptide and the nucleic acid dissociating with the peptide and moving into the gel were detected.
FIG. 15 is a photograph showing the agarose gel subjected to UV irradiation. […] When an integrated band with a large molecular weight, which strongly shines is observed in the left lane, it was evaluated as a high condensability.

The test system of data set [2] is plasmid vector (pDNA). Put plainly: Average particle diameter and Zeta potential of peptide-nucleic-acid complexes (zetasizer), Example 1. Type of data set: physicochemical. How it is done: The condensability of the nucleic acid by the peptide of the embodiment and the potential of the peptide-nucleic-acid complex were evaluated.
The peptides were each dissolved in 10 mM of HEPES (pH: 5.3) to prepare several peptide solutions having different peptide concentrations.
For the protamine, three peptide solutions were prepared to have peptide concentrations of: (1) 2.1 mg/ml, (2) 2.4 mg/ml and (3) 2.7 mg/ml. For the mHP-4, four peptide solutions were prepared to have peptide concentrations of: (4) 1.8 mg/ml, (5) 2.1 mg/ml, (6) 2.4 mg/ml and (7) 2.7 mg/ml. For the mHP-1, three peptide solutions were prepared to have peptide concentrations of: (8) 2.1 mg/ml, (9) 2.4 mg/ml and (10) 2.7 mg/ml. For the mHP-2, five peptide solutions were prepared to have peptide concentrations of: (11) 1.2 mg/ml, (12) 1.5 mg/ml, (13) 2.1 mg/ml, (14) 2.4 mg/ml and (15) 2.7 mg/ml. For the mHP-3, three peptide solutions were prepared to have peptide concentrations of: (16) 2.1 mg/ml, (17) 2.4 mg/ml and (18) 2.7 mg/ml. Further, plasmid vector (pDNA) was diluted with purified water to prepare a nucleic acid solution having a pDNA concentration of 3.0 mg/ml.
18 sets of nucleic acid solutions (90 μL) put in tubes were prepared and the peptide solutions (1) to (18) (90 μL) described above were dropped respectively therein and mixed while stirring each, to condense the nucleic acids. Thus, the peptide-nucleic-acid complexes were obtained. Then, the mixtures were each diluted with purified water to 25-fold to produce peptide-nucleic-acid solutions. Further, as references, samples containing only each respective peptide were also prepared without adding the nucleic acid solutions thereto.
The average particle diameter and Zeta potential of each of the peptide-nucleic-acid complexes were investigated using the peptide-nucleic-acid solutions. The average particle diameter and Zeta potential were measured using a zetasizer.

A short description of data set [3]: Average particle diameter and Zeta potential of liposome (zetasizer), Example 3. Type of data set: physicochemical. How it is done:
(§1) COATSOME/SS-20 (Nippon Oil & Fats), DOPE, cholesterol and DMG-PEG were dissolved into ethanol at a molar ratio of 5:3:1:0.3, to obtain a lipid solution. Two sets of lipid solutions (0.5 ml) put into tubes were prepared, and 0.5 ml of peptide-nucleic-acid solutions (8) (mHP-1) and (16) (mHP-3) of Example 1 were dropped thereto while stirring each lipid solution, thereby forming liposomes. 9 ml of 10 mM-HEPES (pH: 5.3) was added to each of the liposome solutions to make a total amount of 10 ml (each liposome solution will be referred to as “Complex” hereinafter). Further, on an assumption that the liposome is taken into an organism, and liposome solutions (which will be referred to as “HEPES replacement”) in which ethanol, which is the solvent of Complex is substituted by HEPES were produced. The HEPES replacements were produced by condensing each solution of Complex to 1.5 ml with an ultrafiltration film for 300 kDa, adding 8.5 ml of 100 mM-HEPES (pH: 7.4) to each, performing ultrafiltration, thereafter substituting the solvent with 10 mM-HEPES (pH: 7.4), and finally condensing to 0.5 ml. Further, the HEPES replacements were filtered for sterilization with a filter with a pore diameter of 0.45 μm to prepare solutions (which will be referred to as “0.45 μm” hereinafter).
(§2) The “peptide-nucleic-acid solution”, “HEPES substituent” and “0.45 micrometer”, each of which contain the protamine, mHP-1 or mHP-3 prepared as above were examined in terms of average particle diameter of liposome, Zeta potential and amount of encapsulation of plasmid. The average particle diameter and Zeta potential were measured using a zetasizer. The amount of encapsulation of plasmid was measured using a Quant-iT PicoGreen (registered trademark) dsDNA assay kit.

The test system of a further data set is plasmid. Kind of data set: Amount of encapsulation of plasmid in liposome (Quant-iT PicoGreen dsDNA assay kit), Example 3. In kind it is physicochemical. On the procedure: as §1, §2
Data set [4] relates to plasmid vector (pDNA). Put plainly: Average particle diameter, polydispersity index and Zeta potential of peptide-nucleic-acid complexes, Example 6. Particulars: peptide-nucleic-acid complex, total peptide 0.24 mg/ml, pDNA 0.15 mg/ml. Type of data set: physicochemical. How it is done: Each of the peptides was dissolved into 10 mM-HEPES (pH: 5.4) to prepare several peptide solutions having different peptide concentrations.
For the mHP-1, one peptide solution was prepared to have a peptide concentration of (1) 0.24 mg/ml. For the mHP-2, one peptide solution was prepared to have a peptide concentration of (2) 0.24 mg/ml. For the mHP-1 and mHP-2, five peptide solutions were prepared to have a total peptide concentration of 0.24 mg/ml and mixture ratios between mHP-1 and mHP-2 of: (3) 1:1, (4) 1:3, (5) 1:5, (6) 1:7 and (7) 1:9. Meanwhile, plasmid vector (pDNA) was diluted with purified water to prepare a nucleic acid solution having a pDNA concentration of 0.15 mg/ml.
The peptide solutions (1) to (7) (100 μL) were prepared in tubes and the nucleic acid solution (200 μL) was dropped and mixed thereto while stirring each solution to condense the nucleic acids, and thus peptide-nucleic-acid complexes were obtained.
The peptide-nucleic-acid complexes were investigated in terms of average particle diameter, polydispersity index and Zeta potential using the respective peptide-nucleic-acid solutions. The average particle diameter, polydispersity index and Zeta potential were measured using a zetasizer.

Data set [5] in a line: Average particle diameter, polydispersity index and Zeta potential of liposome (Complex), Example 8. Type of data set: physicochemical. How it is done:
COATSOME/SS-20 (Nippon Oil & Fats), DOPE, cholesterol and DMG-PEG were dissolved into ethanol at a molar ratio of 5:3:1:0.3, to obtain a lipid solution. Five sets of 50 μL of lipid solutions put into tubes were prepared, and 50 μL of peptide-nucleic-acid solutions (1) to (4) and (7) of Example 6 were dropped thereto while stirring each lipid solution, thereby forming liposomes. 400 μL of 10 mM-HEPES (pH: 5.4) was added to each of the liposome solutions to make a total amount of 500 μL (this liposome solution will be referred to as “Complex” hereinafter).
The average particle diameter, polydispersity index and Zeta potential of liposome were investigated using the Complex. The average particle diameter, polydispersity index and Zeta potential were measured using a zetasizer.

[6] abbreviates: pDNA/peptide 1/0.7 (peptide conc. 2.1 mg/mL).
Setting [7] is: pDNA/peptide 1/0.8 (peptide conc. 2.4 mg/mL).
[8] abbreviates: pDNA/peptide 1/0.9 (peptide conc. 2.7 mg/mL).
Where [9] appears, read: peptide solely, no nucleic acid (Reference).
[10] abbreviates: pDNA/peptide 1/0.6 (peptide conc. 1.8 mg/mL).
The mark [11] stands for this setting: pDNA/peptide 1/0.4 (peptide conc. 1.2 mg/mL).
Setting [12] is: pDNA/peptide 1/0.5 (peptide conc. 1.5 mg/mL).

On to “GNQSSNFGPMKGGNFGGRSSGPYGGGGQYFAKPRNQGGYGGGKCRGKVPGKYGKG [M9, third nucleic acid condensing peptide comprising M9 domain of hnRNP A1]”, for which the “influence on condensability or dissociation of nucleic acid by mixed mHP-1 and mHP-2 peptide solution” value in the data set with plasmid vector (pDNA) [1] (M9 added to mHP-1:mHP-2 1:3 peptide solution (FIG. 15)) was “does not influence the condensability or dissociation”. In addition, the nucleic acid condensability result with plasmid vector (pDNA) [1] (M9 used solely, 0.24 mg/ml, 0.8% agarose gel (FIG. 15)) is reported as “does not exhibit nucleic acid condensability”.

With “PRRRRSSSRPIRRRRPRRASRRRRRRGGRRRR (salmon) [Protamine sequence, reference compound]”, the “Average particle diameter (zAve)” value is 136.5 nm in the data set with plasmid vector (pDNA) [2] (setting [6]); 135.9 nm with plasmid vector (pDNA) [2] (setting [7]); 139.6 nm in the data set on plasmid vector (pDNA) [2] (setting [8]); 711.3 nm in the data set on plasmid vector (pDNA) [2] (setting [9]); 167.8 nm in data set [3] (Peptide-nucleic acid solution); 235.5 nm in data set [3] (liposome, 0.45 μm filtered). In addition, the “Average particle diameter (zAve)” value in data set [3] (liposome, HEPES substitution) came out at 392.2 nm. Moreover, the Zeta potential is −27.8 mV in the data set with plasmid vector (pDNA) [2] (setting [6]); −24.9 mV in the data set on plasmid vector (pDNA) [2] (setting [7]); −29.5 mV with plasmid vector (pDNA) [2] (setting [8]); 28.1 mV in the data set with plasmid vector (pDNA) [2] (setting [9]); −41.30 mV in data set [3] (Peptide-nucleic acid solution); −0.72 mV in data set [3] (liposome, 0.45 μm filtered). Moreover, in data set [3] (liposome, HEPES substitution), the Zeta potential is −0.47 mV. Moreover, the Plasmid inclusion amount in the data set with plasmid (0.45 μm filtered) is 7.97 µg/mL; with plasmid (HEPES substitution), 12.68 µg/mL.

Consider “RRRRRRGGRRRRRR (Comperative example of nucleic acid condensing peptide) [mHP-4]”, for which the “Average particle diameter (zAve)” value in the data set with plasmid vector (pDNA) [2] (setting [10]) was determined as 130.9 nm; in the data set on plasmid vector (pDNA) [2] (setting [6]) it was 141.2 nm; in the data set with plasmid vector (pDNA) [2] (setting [7]), 323.4 nm; with plasmid vector (pDNA) [2] (setting [8]), 212.2 nm; in the data set with plasmid vector (pDNA) [2] (setting [9]), 1083.0 nm. The Zeta potential in the data set on plasmid vector (pDNA) [2] (setting [10]) is on record as −23.8 mV; in the data set on plasmid vector (pDNA) [2] (setting [6]), −30.7 mV; with plasmid vector (pDNA) [2] (setting [7]), 28.6 mV; with plasmid vector (pDNA) [2] (setting [8]), 33.0 mV; in the data set with plasmid vector (pDNA) [2] (setting [9]), 39.7 mV.

Take “RRRRRRYYRQRQRGGRRRRRR (Comperative example of nucleic acid condensing peptide) [mHP-2]”: the “Average particle diameter (zAve)” value with plasmid vector (pDNA) [2] (setting [11]) worked out at 141.8 nm; in the data set on plasmid vector (pDNA) [2] (setting [12]) it was 139.8 nm; in the data set on plasmid vector (pDNA) [2] (setting [6]), 184.0 nm; in the data set on plasmid vector (pDNA) [2] (setting [7]), 159.0 nm; in the data set with plasmid vector (pDNA) [2] (setting [8]) it was 158.6 nm; in the data set with plasmid vector (pDNA) [2] (setting [9]), 321.0 nm. The results for the “Average particle diameter (zAve)” value (in the data set with plasmid vector (pDNA) [4]; in data set [5]) were 169.1 nm and 250.0 nm, respectively. Also, the Zeta potential is recorded as −27.7 mV with plasmid vector (pDNA) [2] (setting [11]); −17.7 mV in the data set with plasmid vector (pDNA) [2] (setting [12]); 27.3 mV with plasmid vector (pDNA) [2] (setting [6]); 21.6 mV in the data set with plasmid vector (pDNA) [2] (setting [7]); 34.2 mV in the data set on plasmid vector (pDNA) [2] (setting [8]); 50.5 mV in the data set on plasmid vector (pDNA) [2] (setting [9]). Besides, the Zeta potential is −34.1 mV in the data set with plasmid vector (pDNA) [4] and 36.2 mV in data set [5]. In addition, the results for the “Polydispersity index (PDI)” value (with plasmid vector (pDNA) [4]; in data set [5]) were 0.285 and 0.092, respectively.
